# From the nanobody polyreactivity screen of Harvey et al. (2022)
# Test: yeast display, Sf9 membrane polyspecificity reagent, FACS + sequencing; frameworks hold sequencing errors
# Summary of the method: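 Nanobodies from a synthetic yeast display library (Saccharomyces cerevisiae BJ5465), induced 36–48 hours with galactose, were stained 1 hour at 4 °C with 10% biotinylated, detergent-solubilized Sf9 membrane reagent, enriched on streptavidin microbeads, then FACS-sorted. Anti-HA (expression) and streptavidin (reagent binding) fluorescence set low and high (top ~1%) gates. Polyreactivity labels come from the gate of origin. Genes were colony-PCR amplified, MiSeq 2 × 250 sequenced and filtered by CDR length.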
row,Sequence,polyreactivity (PSR sort gate)
1,QVQLVDSGGGLVQAGGSLRLICAASGITFRHYAMGWYRTAPGKERELVAAITRRGGSTRYADSVKGRFTISRDNAKNTVYLQMNSLKPEDTAVYYCNAVYWSEGDWSERRDYWGQGTQVTVSS,high polyreactivity
2,QVQLVDSGGGLVQAGGSLRLICAASGRIFYTNAMGWYRQAPGKERELVAAIDYSDSTTYYADSVKRRYTISRDNAKNTVYLQMNSLKPEDTAVYYCAAESYLYTVTFEYWGQGTQVTVSS,high polyreactivity
3,QVQLVDSGGGLVQAGGSLRLICAASGRTFYYYAMGWYRQAPGKERELVAGISSGVSTTYADSVKGRFTISRDNAKNTVYLQLNSLKPEDTAFYYCAARWRPNRAYIGYDYWGQGTQVTVSS,low polyreactivity
4,QVQLVDSGGGLVQAGGSLRLICAASGSTFYHYAMGWYRQAPGKERELVAAISSSGGRTYYADSVKGRFTISRDNAKNTVYLQMNSLKPEDTAVYYCAARAKTSGSIEDYWGQGTQVTVSS,high polyreactivity
5,QVQLVDSGGGLVQAGGSLRLRCAASGITFLGNDMGWYRQAPGKERELVAAISSGSTNYADSVKGRFTISRDNANKTVDLQMNSLKPADPAVYYCAADIRGGLSNYSPKDYDYWGQGTQVTVSS,low polyreactivity
6,QVQLVDSGGGLVQAGGSLRLSCAASGAIFEYYAMAWNRQAPGKERELVAAISWSGGSTYYADSVKGRFTISRDNAKNTVYLQMNSLKPEDTAVYYCAADYYLYQVYTGYDYWGQGTQVNVSS,low polyreactivity
7,QVQLVDSGGGLVQAGGSLRLSCAASGFIFDVYAMGGYRQAPGKERELVAAITSGDGTNYADSVKGRFTISRDNAKNTVYFQMNSLKPEDTAVYYCAADDGVTYRGIIFSYWGQGTQVTVSS,low polyreactivity
8,QVQLVDSGGGLVQAGGSLRLSCAASGFIFPINAMGWYRQAPGKERELVAAITGGGSTSYADSVKGRFTISRDNAKNTVYLQMNSLKPEDTAVYYCATDRLTYTKYGYWGQGTLVTVSS,low polyreactivity
9,QVQLVDSGGGLVQAGGSLRLSCAASGFIFVGYGMGWYRQAPGKERELVAAIDGGGSTYYADSVKGRFTISRDNAKNTVYLQMNSLKPEDTAVYYCNALPAYGWYDYDYWGQGTQVTVSS,low polyreactivity
10,QVQLVDSGGGLVQAGGSLRLSCAASGFNFDQYGLGWYRQAPGKERELVASITSTGSTYYADSVKGRFTISRDNAKNTVYLQMNSLKPEDTAVYYCATDSYDGMDYWGQGTQVTVSS,low polyreactivity
11,QVQLVDSGGGLVQAGGSLRLSCAASGFTFRDYAMGWYRQAPRKERELVAAISRSGDSTYYADSVKGRFTISRDNAKNTVYLQMNSLKPEDTAVYYCNTAGFYWLHYTMDYWGQGTQVTVSS,high polyreactivity
12,QVQLVDSGGGLVQAGGSLRLSCAASGFTFYSYAMGWYRQAPGKERELVASITSGGSTYYADSVKGLFTISRDNGKNTVYLPMNSLNPEYTAVSYCAATRGYSQYGRVRKYGYWGLGTQVTVSS,high polyreactivity
13,QVQLVDSGGGLVQAGGSLRLSCAASGIIFVGYAMGWYRQAPGKERELVAAITYNVGSTYYADSVKGRFTISRDNAKNTVYLQMKSLKPEDTAVYYCNADRYPFFDLLISRYGSNPYDYWGQGTQVTVSS,low polyreactivity
14,QVQLVDSGGGLVQAGGSLRLSCAASGIIFWRYAMGWYRQAPGKERELVASISSSGGRTYYADSVKGRFTISRDNAKNTVYLQMNSLKPEDTAVYYCAARGPYGYDLLYYWGQGTQVTVSS,high polyreactivity
15,QVQLVDSGGGLVQAGGSLRLSCAASGIIFWYYTRGWYRQAPGKERELVASISRGGSTYYADSVKGRFTISRDNAKNTVYLQMNSLKPEDTAVYYCARRPNTGPYGNYDYWGQGTQVTVSS,high polyreactivity
16,QVQLVDSGGGLVQAGGSLRLSCAASGIIYRFYAMGWYRQAPAQEREMVAAISSGGSTYYADSVKGRCTISRDTAKNTVYLQINRLKPEDTAVYYCNARVRYKRTGRYGYWGQGTQVTVSS,high polyreactivity
17,QVQLVDSGGGLVQAGGSLRLSCAASGINFASYAMGWYRQAPGKEMEIVAAISRSGSSTYYADSVKGRFTISRDNAKYTVYLQMNSLKPEDTAVYYCARARSGGSHREYYWGQGTQVTVSS,high polyreactivity
18,QVQLVDSGGGLVQAGGSLRLSCAASGITFGRNTMGGYRQAPGKERELVAAIDSGGNTYADSVKGRFTISRDNAKNSVYLQMNSLKPEDTAVYYCAVDGGEFSSYGYWGQGTQVTVSW,low polyreactivity
19,QVQLVDSGGGLVQAGGSLRLSCAASGITFRRYAMGWYRQAPGKERELVASITRNGGITYYADSVKGRFTISRDNAKNTVYLQMNSLKPEDTAVYYCNAVFYYPYPADRRDYWGQGTQVTVSS,high polyreactivity
20,QVQLVDSGGGLVQAGGSLRLSCAASGITFWSYAMGWYRPAPGKERELVAGISRRGGSTYYADSVKGRFTISRDNAKNTVYLQMNSLKPEDTAVYYCAARAYPTPVRSFLYTDIVYYWGQGTQVTVSS,high polyreactivity
21,QVQLVDSGGGLVQAGGSLRLSCAASGITFYFNAMGWYRQAPGKERELVAAITRGGRTNYADSVKGRFTISRDNAKNTVYLQMNSLKPEDTAFYYCAAYIYRGRETNGPDYYYWGQGTQVTVSS,low polyreactivity
22,QVQLVDSGGGLVQAGGSLRLSCAASGLIFDSYDMGWYRQEPGKERELVSPIRRNGGSTYYADSVKGRFTISRDNAMYTVYLQMNSLKPEDTAVYYCAVDNSGYCGVYWVKMDYWGQGSQVTVSS,low polyreactivity

row,Sequence,polyreactivity (PSR sort gate)
1,QVQLVDSGGGLVQAGGSLRLSCAASGLTFQWYTMGWYRPAPGKERELVAAISSRGGSTYYADSVKGRFTISRDNAKNTVYLQMNSLKPEDTAVYYCAAVSGWEHRYDYWGQGTLVTVSS,high polyreactivity
2,QVQLVDSGGGLVQAGGSLRLSCAASGLTFQYKAMGRYRHAPGKERELVATISQSGGSTYYADSVKGRFTISRDNAKNTVYLQMNSLKPEDTAVYYCAADGAWGTASYSVAFDYWGQGTQVTVSS,low polyreactivity
3,QVQLVDSGGGLVQAGGSLRLSCAASGLTFYYYAMGWYRQAPGKESELVSAISATGGRTYYSDSVKGRFTISRDNAKNTVYLQMNSLKPEDTAVYYCAADTPYLRRRLGMDYWGQGTQVTVSS,high polyreactivity
4,QVQLVDSGGGLVQAGGSLRLSCAASGLTIYAYAMGWYRQAPGKERELVAAISSGGSTSYADSVKGRFTISRDNAKNTVYLQMNSLKPEDTAVYYCAARPKSSRFFGWGYNYWGQGTQVTVSS,high polyreactivity
5,QVQLVDSGGGLVQAGGSLRLSCAASGNIICGYARGRNIQAPGKEREMVASISQRGGITYYADSVKGRFTISRDKAKNTVYLEMNSLKAEDTEVYYCAKRGTYGWYGAYDYWGEGTQVTVSS,low polyreactivity
6,QVQLVDSGGGLVQAGGSLRLSCAASGNTFIYYAMGWYRQAPGKERELVAAITWSGGSTYYADSVKGRFTISRDNAKNTVYLQMNSLKPEDTAVYYCAKFTHNYYYWGQGTQVTVSS,high polyreactivity
7,QVQLVDSGGGLVQAGGSLRLSCAASGPIFKRYAMGWYRQAPGKERELVASITTSGDSTYYADSVKGRFTISRDNAKNTVYLQMNSLKPEDTAVYYCAGRSYSGRRYDYWGQGTQVTVSS,high polyreactivity
8,QVQLVDSGGGLVQAGGSLRLSCAASGRIFDYNAMGWYRQAPGKERELVAVITGTGGTTYYADSVKGRFTISRDNAKNTVYLQMNSVKPEDTAVYYCNADDYRLTSLYIPERYDYWGQGTQLTVSS,low polyreactivity
9,QVQLVDSGGGLVQAGGSLRLSCAASGRIFHGYAMGWYRLAPGKERELVAAISWRGDSTYYADSVKGRFTISRDNAKNTVYLQMNSLKPEDTAVYYCAAASRSWRDDYWGQGTQVTVSS,low polyreactivity
10,QVQLVDSGGGLVQAGGSLRLSCAASGRIFLVNALGGSRQAPGKERELVAAISYRSGRTYSADSVKGRFTISRDTAKNTVYLQMNSLIPEDTAVYYCAAYTNVADMDYWGQGTQVTVSS,high polyreactivity
11,QVQLVDSGGGLVQAGGSLRLSCAASGRIFYVYAMGWYRQATGKERQLVASIRYSGATTYYADSVKGRFTISLDNAKNTVYLQMNSLKPEDTAVYYCAADTLGTPAYRYEYWGQGTQVTVSS,low polyreactivity
12,QVQLVDSGGGLVQAGGSLRLSCAASGRTFDGYAMGWYRQAPGKERELVAAISRTGGSTYYADSVKGRFTISRENAKNTVYLLMTSLKPEDTAVYYCNAVTLSSTYGGHDYWGQGTQVTVSS,high polyreactivity
13,QVQLVDSGGGLVQAGGSLRLSCAASGRTFGIYAMGWYRQAPGKERELVAAIRWRDGSTYYADSVKGRFTISRDNAKNTVYLQMYSLKPEDNAVYYCAATSLVYVRGSYWKYGYWGQGTQVTVSS,high polyreactivity
14,QVQLVDSGGGLVQAGGSLRLSCAASGRTFLSMGWYRQAPGKERELVAAISRTNYADSVKGRFTISRDNAKNTVYLQMNSLKPEDTAVYYCAAVPKYGRYVRIGYPNDYWGQGTQVTVSS,low polyreactivity
15,QVQLVDSGGGLVQAGGSLRLSCAASGRTFPSYVMGWYRQAPGKERELVAAISWSGGSTSYADSVKGRFTISRDNAKNTVYLQMNSLKPEDTAVYYCNADRRPGGDYWGQGTQVTVSS,low polyreactivity
16,QVQLVDSGGGLVQAGGSLRLSCAASGRTFWYYDMGWYRQAPGKERELVATINNVGSTHYADSVKGRFTISRDNAKNTVYLQMNSLNPEDTAVYYCARASYGKMDYWGQGTQLTVSS,high polyreactivity
17,QVQLVDSGGGLVQAGGSLRLSCAASGRTFWYYTMGWYRQAPGKEREFVAAIRGSGTSTYYADSVKARFTISRDNEKNTVYLQMNSLKPEDTAVYYCAAESPVYHLVTYDYWGQGTQVTVSS,high polyreactivity
18,QVQLVDSGGGLVQAGGSLRLSCAASGRTFYTYAMGWYRVAPGKEWELVAAITGGGSTTYADSVKGRFTISRDNAKNTVYLQMNSLKPEDTEVYYCAALIYGPERVVDEYDYWGQGTQVTVSS,low polyreactivity
19,QVQLVDSGGGLVQAGGSLRLSCAASGRTVRYYTMGWYRQAPGKERELVAAISNAASTNYADSVKGRFTISRDNAKNTVYLQMNSLKPEDTAVYYCNAYLHYRAGHPRGYHNRYYYWGQGTQVTVSS,high polyreactivity
20,QVQLVDSGGGLVQAGGSLRLSCAASGSIFHANAMGWYRQAPGKERELVAVISQGGGSTYYADSVKGRFTISRDNAKNTVYLQMNSLKPEDTAVYYCAAYYYYSAYGDDYWGQGTQVTVSS,high polyreactivity
21,QVQLVDSGGGLVQAGGSLRLSCAASGSIFHVYAMGWYRQAPGKERELFAAIDRSGGSTYYADSVKGRFTISRDNAKNTVYLQMNSLKPEDTAVFYCAKDVLGGLITDGVGNDYWGQGTQLTVSS,low polyreactivity
